Results: PMC6274722
deuterohemin = iron-porphyrin joined to the peptide N-terminus

Target: amyloid β 1-42 peptide (Aβ1-42) (UniProt P05067)

particle size (DLS, five days) and morphology (TEM, three days) of Aβ1-42 incubated with DhHP-6 at 10 μM:10 μM, 37 °C: 396 nm
Binder: deuterohemin-AHTVEK-NH2 (also: His2 imidazole is the fifth ligand of the deuterohemin iron) [Deuterohemin-AlaHisThrValGluLys (DhHP-6)]
